Experimental data: patent US20210405060A1 (published 2021)
Each block holds one molecule with its values, some of them ahead of it.

How the values were obtained:
[1] = molecular target: PTP1BS187C lite / C3-SLF conjugate (UniProt P18031); test: X-ray crystal structure FKBP12-C3SLF-PTP1BS187C
[2] = molecular target: T1, 12xHIS tagged FKBP12 / Compound 1 binary complex (UniProt P62942 1-108, limits assumed); test: SPR (Biacore X100), 12xHIS FKBP12 on NTA chip with 1 µM Compound 1, CEP250 as analyte, 1:1 model, 25 °C
T1 construct: Immobilized on an NTA chip, with 1 µM Compound 1 in all buffers; also called immobilized FKBP12-Compound 1 binary complex; not shown: 12xHIS tag
Procedure: Experimental Protocol: Experiments are performed at 25° C. […] The second flow cell is not activated as a reference for non-specific interaction of the analyte to the sensor chip. […] The surface is regenerated between analyte injections with 350 mM EDTA.
Data Fitting: The BiaEvaluation software program is used for data fitting. All data is reference subtracted against both the reference flow cell and a buffer injection. For kinetic analyses, data is locally fit to a 1:1 interaction model.

[3] = molecular target: T2, FKBP12-Compound 1 binary complex (UniProt P62942 1-108); test: ITC, 298 K; FKBP12 + Compound 1b in cell, CEP25011.4 in syringe
T2 construct: FKBP12 (10 µM) pre-incubated with 20 µM of the non-covalent ligand Compound 1 in the ITC cell
Procedure: (§1) CEP250 protein stocks are diluted to 50 μM in assay buffer and supplemented with 20 μM compound (1% DMSO final) before being filled into the injection syringe. A control experiment in the absence of compound is also run to determine the heat associated with operational artifacts and the dilution of titrant as it is injected from the syringe into the reaction cell.
(§2) Data Fitting: Data were fitted with the Origin ITC200 software according to the following procedure: [0473] 1) Read raw data [0474] 2) In “mRawITC”: adjust integration peaks and baseline, integrate all peaks [0475] 3) In “Delta H”—data control: remove bad data (injection #1 and other artifacts), subtract straight line (background subtraction) [0476] 4) In “Delta H”—model fitting: select one set of sites model, perform fitting with Levenberg-Marquardt algorithm until Chi Square is not reduced further, finish with “done” (parameters N, Kₐ and ΔH are calculated based on fitting)

[4] = molecular target: T3, FKBP12-Compound 2 binary complex (UniProt P62942 1-108); test: ITC, 298 K; FKBP12 + Compound 2 in cell, CEP25011.4 in syringe
T3 construct: FKBP12 (10 µM) pre-incubated with 20 µM of the non-covalent ligand Compound 2 in the ITC cell
Procedure: as §1, §2

[5] = molecular target: MCL1S245C lite / C3-SLF conjugate (UniProt Q07820); test: X-ray crystal structure MCL1S245C/C3SLF/FKBP52, 3.0 Å
Sequence of MCL1S245C lite / C3-SLF conjugate (Q07820 other isoform, or with tags, fused parts or gaps with the stated changes limits assumed): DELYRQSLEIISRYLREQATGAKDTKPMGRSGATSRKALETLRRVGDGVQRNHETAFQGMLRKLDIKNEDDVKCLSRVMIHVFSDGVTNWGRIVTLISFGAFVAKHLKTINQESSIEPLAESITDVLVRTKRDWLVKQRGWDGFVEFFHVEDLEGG

Sequence of PTP1BS187C lite / C3-SLF conjugate (P18031 other isoform, or with tags, fused parts or gaps limits assumed, stated change not applied): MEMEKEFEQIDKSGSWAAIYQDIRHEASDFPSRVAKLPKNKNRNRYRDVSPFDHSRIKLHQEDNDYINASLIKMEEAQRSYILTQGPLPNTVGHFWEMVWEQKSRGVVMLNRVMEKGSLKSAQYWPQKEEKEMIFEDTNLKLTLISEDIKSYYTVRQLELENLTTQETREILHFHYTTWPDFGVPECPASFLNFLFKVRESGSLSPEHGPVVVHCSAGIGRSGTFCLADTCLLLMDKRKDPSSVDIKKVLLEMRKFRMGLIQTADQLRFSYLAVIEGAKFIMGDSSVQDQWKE
T3 sequence (P62942 whole entry, one chain of several): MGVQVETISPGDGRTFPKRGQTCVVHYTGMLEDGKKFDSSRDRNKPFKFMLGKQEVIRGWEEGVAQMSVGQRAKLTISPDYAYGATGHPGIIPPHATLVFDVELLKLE
T2 sequence (P62942 whole entry, one chain of several): as above
T1 sequence (P62942 whole entry, one chain of several): as above

buried surface area of PTP1BS187C [1]: 427 Å^2
total buried surface area of the complex [1]: 1040 Å^2
Molecule: FKBP12 (in-house) (from UniProt P62942 1-108) (enzyme)

Kd [2]: 5.4 nM
Kd [3]: 70 nM
Kd [4]: 80 nM
B1: CEP25011.4 (residues 2134-2231) (other, UniProt Q9BV73 2134-2231, looked up)
chain: MEEQSLKLDSLEPRLQRELERLQAALRQTEAREIEWREKAQDLALSLAQTKASVSSLQEVAMFLQASVLERDSEQQRLQDELELTRRALEKERLHSPG
notes: range 2134-2231

buried surface area contributed by FKBP52 [5]: 804 Å^2
share of buried surface area contributed by FKBP52 [5]: 60%
total buried surface area of the complex [5]: 1410 Å^2
B2: FKBP52 (in-house, residues 1-140) (enzyme, UniProt Q02790 1-140, looked up)
chain: MTAEEMKATESGAQSAPLPMEGVDISPKQDEGVLKVIKREGTGTEMPMIGDRVFVHYTGWLLDGTKFDSSLDRKDKFSFDLGKGEVIKAWDIAIATMKVGEVCHITCKPEYAYGSAGSPPKIPPNATLVFEVELFEFKGE
